{
  "source": "patent US20080044421A1",
  "molecular_target": "CD20 (human) (UniProt P11836)",
  "sequence (P11836 whole entry)": "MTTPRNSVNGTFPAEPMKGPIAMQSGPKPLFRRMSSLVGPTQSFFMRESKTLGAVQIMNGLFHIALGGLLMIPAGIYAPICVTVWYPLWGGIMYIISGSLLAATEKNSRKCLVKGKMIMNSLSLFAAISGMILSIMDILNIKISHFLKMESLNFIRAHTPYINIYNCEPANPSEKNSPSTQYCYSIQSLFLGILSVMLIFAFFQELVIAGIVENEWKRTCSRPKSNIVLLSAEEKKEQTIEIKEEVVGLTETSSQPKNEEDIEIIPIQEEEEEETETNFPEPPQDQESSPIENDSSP",
  "assay": "FACS on Ramos, Daudi, Raji and BJAB B lymphoma cells; range over four cell lines",
  "data": [
    {"substance": "RITUXAN (rituximab), monoclonal antibody specific for CD20", "values": [
      {"measurement": "mean fluorescence shift", "result": "5 to 15", "unit": "units"}
    ]}
  ]
}
